Test [1] has as its target M4NΔC (M4N without stop helix). Description: SEC-MALS; static light scattering: Superdex S200 gel size exclusion column coupled to a miniDAWN Tristar laser photometer and a differential refractometer; buffer A (50 mM Tris pH 8, 150 mM NaCl).
Test [2] addresses M4N-His (M4N with the stop helix extended by a C-terminal His6-tag). The test is described as above.

Results on two substances are retold here after article PMC5074805.

M4NΔC (M4N without stop helix): in test [1], the stoichiometry N (commonly the number of molecules, sites or subunits per partner or assembly) was determined as 2. For the substance “M4N-His (M4N with the stop helix extended by a C-terminal His6-tag)”, the stoichiometry N in test [2] is 2.
